Data taken from PMC9482650, “Quantitative fragmentomics allow affinity mapping of interactomes” (Nature Communications, 2022).

How the values were obtained:
Assay in all cases: holdup assay
Set-up in all cases: key: below the threshold = too weak to quantify, mostly under pKd 3.1 to 4
LNX2_2, Q8N448 = molecular target: T1, LNX2_2, Q8N448
T1 sequence (Q8N448 334-432, limits assumed, looked up): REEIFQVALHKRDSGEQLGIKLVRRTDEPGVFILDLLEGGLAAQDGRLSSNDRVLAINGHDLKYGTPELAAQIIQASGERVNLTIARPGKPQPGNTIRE

MPDZ_10, O75970 = molecular target: T2, MPDZ_10, O75970
T2 sequence (O75970 1624-1722, limits assumed, looked up): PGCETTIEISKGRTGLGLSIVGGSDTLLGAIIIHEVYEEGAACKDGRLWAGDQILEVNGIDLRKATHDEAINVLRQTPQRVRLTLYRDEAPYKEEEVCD

NOS1, P29475 = molecular target: NOS1, P29475
NOS1, P29475, sequence (P29475 9-101): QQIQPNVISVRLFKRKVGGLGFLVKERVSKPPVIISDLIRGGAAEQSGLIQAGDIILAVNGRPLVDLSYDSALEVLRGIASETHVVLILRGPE

TX1BP3, O14907 = molecular target: T3, TX1BP3, O14907
T3 sequence (O14907 10-122, limits assumed, looked up): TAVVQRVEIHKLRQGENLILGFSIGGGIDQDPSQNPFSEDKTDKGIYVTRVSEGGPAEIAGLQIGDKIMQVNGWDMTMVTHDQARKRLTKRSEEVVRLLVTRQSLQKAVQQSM

DLG3_1, Q92796 = molecular target: T4, DLG3_1, Q92796
T4 sequence (Q92796 125-227, limits assumed, looked up): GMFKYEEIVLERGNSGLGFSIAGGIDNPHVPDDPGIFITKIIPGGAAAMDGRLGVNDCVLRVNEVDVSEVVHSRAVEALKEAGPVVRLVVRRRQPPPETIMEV

GRIP2_4, Q9C0E4 = molecular target: GRIP2_4, Q9C0E4
GRIP2_4, Q9C0E4, sequence (Q9C0E4 446-548): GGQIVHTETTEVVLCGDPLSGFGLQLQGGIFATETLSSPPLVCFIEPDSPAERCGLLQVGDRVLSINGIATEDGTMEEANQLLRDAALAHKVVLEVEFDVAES

MAGI1_2, Q96QZ7 = molecular target: MAGI1_2, Q96QZ7
MAGI1_2, Q96QZ7, sequence (Q96QZ7 456-580): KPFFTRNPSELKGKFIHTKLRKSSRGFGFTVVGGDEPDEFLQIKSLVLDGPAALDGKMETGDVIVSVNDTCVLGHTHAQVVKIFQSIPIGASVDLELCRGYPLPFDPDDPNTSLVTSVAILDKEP

DFNB31_2, Q9P202 = molecular target: T5, DFNB31_2, Q9P202
T5 sequence (Q9P202 274-371, limits assumed, looked up): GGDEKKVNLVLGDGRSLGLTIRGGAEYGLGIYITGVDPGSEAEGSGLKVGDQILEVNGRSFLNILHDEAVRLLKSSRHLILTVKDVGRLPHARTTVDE

SCRIB_3, Q14160 = molecular target: SCRIB_3, Q14160
SCRIB_3, Q14160, sequence (Q14160 999-1103): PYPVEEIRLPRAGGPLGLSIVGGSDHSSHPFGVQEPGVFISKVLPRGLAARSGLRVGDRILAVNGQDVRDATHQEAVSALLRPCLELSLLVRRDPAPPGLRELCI

GRIP2_7, Q9C0E4 = molecular target: GRIP2_7, Q9C0E4
GRIP2_7, Q9C0E4, sequence (Q9C0E4 934-1023): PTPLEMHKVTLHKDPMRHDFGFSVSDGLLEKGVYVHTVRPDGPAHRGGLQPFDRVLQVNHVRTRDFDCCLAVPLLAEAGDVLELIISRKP

PARD3_3, Q8TEW0 = molecular target: PARD3_3, Q8TEW0
PARD3_3, Q8TEW0, sequence (Q8TEW0 582-685): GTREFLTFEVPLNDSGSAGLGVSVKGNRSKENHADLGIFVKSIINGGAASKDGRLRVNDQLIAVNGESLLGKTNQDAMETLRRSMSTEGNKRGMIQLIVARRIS

DLG1_1, Q12959 = molecular target: DLG1_1, Q12959
SIPA1L2, Q9P2F8 = molecular target: T6, SIPA1L2, Q9P2F8
T6 sequence (Q9P2F8 945-1036, limits assumed, looked up): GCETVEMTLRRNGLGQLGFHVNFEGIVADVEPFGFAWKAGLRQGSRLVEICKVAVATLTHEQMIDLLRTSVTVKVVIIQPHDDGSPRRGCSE

NHERF4_2, Q86UT5 = molecular target: NHERF4_2, Q86UT5
NHERF4_2, Q86UT5, sequence (Q86UT5 220-308): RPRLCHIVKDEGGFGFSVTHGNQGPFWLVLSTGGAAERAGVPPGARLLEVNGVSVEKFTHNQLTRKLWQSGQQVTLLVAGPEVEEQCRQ

GRIP2_5, Q9C0E4 = molecular target: GRIP2_5, Q9C0E4
GRIP2_5, Q9C0E4, sequence (Q9C0E4 544-642): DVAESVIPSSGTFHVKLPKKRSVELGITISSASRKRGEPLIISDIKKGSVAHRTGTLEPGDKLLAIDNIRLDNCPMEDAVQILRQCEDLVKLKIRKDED

APBA2_2, Q99767 = molecular target: T7, APBA2_2, Q99767
T7 sequence (Q99767 654-744, limits assumed, looked up): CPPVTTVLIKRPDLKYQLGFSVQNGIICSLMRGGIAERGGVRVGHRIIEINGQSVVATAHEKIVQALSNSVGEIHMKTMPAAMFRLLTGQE

Inadl_10, Q8NI35 = molecular target: Inadl_10, Q8NI35
Inadl_10, Q8NI35, sequence (Q8NI35 1673-1763): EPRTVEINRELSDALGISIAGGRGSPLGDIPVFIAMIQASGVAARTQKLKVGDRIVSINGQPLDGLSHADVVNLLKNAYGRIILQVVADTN

LIN7C, Q9NUP9 = molecular target: T8, LIN7C, Q9NUP9
T8 sequence (Q9NUP9 88-185, limits assumed, looked up): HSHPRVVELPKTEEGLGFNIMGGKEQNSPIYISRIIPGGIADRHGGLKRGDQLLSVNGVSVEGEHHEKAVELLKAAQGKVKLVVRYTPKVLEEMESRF

HTRA2, O43464 = molecular target: HTRA2, O43464
HTRA2, O43464, sequence (O43464 355-458): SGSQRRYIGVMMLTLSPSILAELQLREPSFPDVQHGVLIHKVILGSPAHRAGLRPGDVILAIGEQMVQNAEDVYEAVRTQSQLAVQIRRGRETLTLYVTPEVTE

MPP2, Q14168 = molecular target: T9, MPP2, Q14168
T9 sequence (Q14168 180-250, limits assumed, looked up): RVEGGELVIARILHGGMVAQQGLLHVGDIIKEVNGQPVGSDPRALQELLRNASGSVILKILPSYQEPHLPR

FRMPD1, Q5SYB0 = molecular target: T10, FRMPD1, Q5SYB0
T10 sequence (Q5SYB0 52-145, limits assumed, looked up): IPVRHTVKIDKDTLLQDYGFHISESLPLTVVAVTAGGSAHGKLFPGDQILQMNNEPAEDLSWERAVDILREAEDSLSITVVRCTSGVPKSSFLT

LDB3, O75112 = molecular target: LDB3, O75112
LDB3, O75112, sequence (O75112 1-94): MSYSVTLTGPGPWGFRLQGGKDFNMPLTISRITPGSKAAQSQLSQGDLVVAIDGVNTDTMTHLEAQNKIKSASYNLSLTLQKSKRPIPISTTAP

DLG2_3, Q15700 = molecular target: DLG2_3, Q15700
DVL3, Q92997 = molecular target: T11, DVL3, Q92997
T11 sequence (Q92997 244-331, limits assumed, looked up): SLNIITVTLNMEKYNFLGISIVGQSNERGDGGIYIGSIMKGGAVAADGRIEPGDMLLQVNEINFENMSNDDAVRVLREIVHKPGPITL

GRIP2_6, Q9C0E4 = molecular target: GRIP2_6, Q9C0E4
GRIP2_6, Q9C0E4, sequence (Q9C0E4 648-740): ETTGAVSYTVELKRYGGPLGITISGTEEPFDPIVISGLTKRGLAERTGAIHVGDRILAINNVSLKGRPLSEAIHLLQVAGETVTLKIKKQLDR

GORASP1, Q9BQQ3 = molecular target: GORASP1, Q9BQQ3
GORASP1, Q9BQQ3, sequence (Q9BQQ3 1-208): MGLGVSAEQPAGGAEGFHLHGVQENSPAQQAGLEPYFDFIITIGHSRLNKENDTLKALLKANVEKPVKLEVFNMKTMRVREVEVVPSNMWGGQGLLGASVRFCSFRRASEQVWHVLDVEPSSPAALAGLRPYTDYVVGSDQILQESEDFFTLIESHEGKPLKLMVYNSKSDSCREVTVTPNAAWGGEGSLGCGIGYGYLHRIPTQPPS

[1] = plain residues with an end cap or a label only (N-terminal biotin on a linker: ado-ado)
[2] = plain residues with an end cap or a label only (N-terminal biotin on a linker: ttds)
[3] = plain residues with an end cap or a label only (N-terminal biotin on a linker: ahx)

With SVVSERISSV [HTR2C, P28335] the pKd (LNX2_2, Q8N448; [1]) was 3.96, the pKd (MPDZ_10, O75970; [1]) was 4.29 and the pKd (NOS1, P29475; [1]) was 3.58. For the same binder, the pKd (TX1BP3, O14907; [1]) was 4.06, the pKd (DLG3_1, Q92796; [1]) was “below the threshold” and the pKd (GRIP2_4, Q9C0E4; [1]) was “below the threshold”. For the same binder, the pKd (MAGI1_2, Q96QZ7; [1]) was “below the threshold”, the pKd (DFNB31_2, Q9P202; [1]) was “below the threshold” and the pKd (SCRIB_3, Q14160; [1]) was 3.71. For the same binder, the pKd (GRIP2_7, Q9C0E4; [1]) was “below the threshold”, the pKd (PARD3_3, Q8TEW0; [1]) was “below the threshold” and the pKd (DLG1_1, Q12959; [1]) was 4.07. The pKd (SIPA1L2, Q9P2F8; [1]) was “below the threshold”, the pKd (NHERF4_2, Q86UT5; [1]) was “below the threshold” and the pKd (GRIP2_5, Q9C0E4; [1]) was “below the threshold”. The pKd (APBA2_2, Q99767; [1]) was “below the threshold”, the pKd (Inadl_10, Q8NI35; [1]) was “below the threshold” and the pKd (LIN7C, Q9NUP9; [1]) was “below the threshold”. For the same binder, the pKd (HTRA2, O43464; [1]) was “below the threshold”, the pKd (MPP2, Q14168; [1]) was “below the threshold” and the pKd (FRMPD1, Q5SYB0; [1]) was “below the threshold”. The pKd (LDB3, O75112; [1]) was “below the threshold”, the pKd (DLG2_3, Q15700; [1]) was 3.89 and the pKd (DVL3, Q92997; [1]) was “below the threshold”. For the same binder, the pKd (GRIP2_6, Q9C0E4; [1]) was “below the threshold” and the pKd (GORASP1, Q9BQQ3; [1]) was “below the threshold”.

With HIVEALETDV [PBK, Q96KB5] the pKd (LNX2_2, Q8N448; [2]) was 3.92, the pKd (MPDZ_10, O75970; [2]) was “below the threshold” and the pKd (NOS1, P29475; [2]) was “below the threshold”. For the same binder, the pKd (TX1BP3, O14907; [2]) was 5.03, the pKd (DLG3_1, Q92796; [2]) was 4.67 and the pKd (GRIP2_4, Q9C0E4; [2]) was “below the threshold”. For the same binder, the pKd (MAGI1_2, Q96QZ7; [2]) was “below the threshold”, the pKd (DFNB31_2, Q9P202; [2]) was “below the threshold” and the pKd (SCRIB_3, Q14160; [2]) was 5.18. For the same binder, the pKd (GRIP2_7, Q9C0E4; [2]) was 3.91, the pKd (PARD3_3, Q8TEW0; [2]) was 3.76 and the pKd (DLG1_1, Q12959; [2]) was 5.01. For the same binder, the pKd (SIPA1L2, Q9P2F8; [2]) was “below the threshold”, the pKd (NHERF4_2, Q86UT5; [2]) was “below the threshold” and the pKd (GRIP2_5, Q9C0E4; [2]) was “below the threshold”. For the same binder, the pKd (APBA2_2, Q99767; [2]) was “below the threshold”, the pKd (Inadl_10, Q8NI35; [2]) was “below the threshold” and the pKd (LIN7C, Q9NUP9; [2]) was 4.05. For the same binder, the pKd (HTRA2, O43464; [2]) was “below the threshold”, the pKd (MPP2, Q14168; [2]) was “below the threshold” and the pKd (FRMPD1, Q5SYB0; [2]) was “below the threshold”. The pKd (LDB3, O75112; [2]) was “below the threshold”, the pKd (DLG2_3, Q15700; [2]) was 3.7 and the pKd (DVL3, Q92997; [2]) was “below the threshold”. For the same binder, the pKd (GRIP2_6, Q9C0E4; [2]) was “below the threshold” and the pKd (GORASP1, Q9BQQ3; [2]) was “below the threshold”.

With EKLSSIESDV [GRIN2B, Q13224] the pKd (LNX2_2, Q8N448; [3]) was “below the threshold”, the pKd (MPDZ_10, O75970; [3]) was 3.84 and the pKd (NOS1, P29475; [3]) was “below the threshold”. The pKd (TX1BP3, O14907; [3]) was 4.74, the pKd (DLG3_1, Q92796; [3]) was 4.15 and the pKd (GRIP2_4, Q9C0E4; [3]) was “below the threshold”. For the same binder, the pKd (MAGI1_2, Q96QZ7; [3]) was “below the threshold”, the pKd (DFNB31_2, Q9P202; [3]) was “below the threshold” and the pKd (SCRIB_3, Q14160; [3]) was 4.28. For the same binder, the pKd (GRIP2_7, Q9C0E4; [3]) was 3.53, the pKd (PARD3_3, Q8TEW0; [3]) was “below the threshold” and the pKd (DLG1_1, Q12959; [3]) was 4.3. The pKd (SIPA1L2, Q9P2F8; [3]) was “below the threshold”, the pKd (NHERF4_2, Q86UT5; [3]) was “below the threshold” and the pKd (GRIP2_5, Q9C0E4; [3]) was “below the threshold”. For the same binder, the pKd (APBA2_2, Q99767; [3]) was “below the threshold”, the pKd (Inadl_10, Q8NI35; [3]) was “below the threshold” and the pKd (LIN7C, Q9NUP9; [3]) was “below the threshold”. For the same binder, the pKd (HTRA2, O43464; [3]) was “below the threshold”, the pKd (MPP2, Q14168; [3]) was “below the threshold” and the pKd (FRMPD1, Q5SYB0; [3]) was “below the threshold”. The pKd (LDB3, O75112; [3]) was “below the threshold”, the pKd (DLG2_3, Q15700; [3]) was 4.56 and the pKd (DVL3, Q92997; [3]) was “below the threshold”. The pKd (GRIP2_6, Q9C0E4; [3]) was “below the threshold” and the pKd (GORASP1, Q9BQQ3; [3]) was “below the threshold”.

In the case of SEKHFRETEV [HTLV1-TAX1, P03409], the pKd (LNX2_2, Q8N448; [2]) is reported as 4.15, the pKd (MPDZ_10, O75970; [2]) is reported as “below the threshold” and the pKd (NOS1, P29475; [2]) is reported as 4.09. The pKd (TX1BP3, O14907; [2]) was 6.2, the pKd (DLG3_1, Q92796; [2]) was 4.58 and the pKd (GRIP2_4, Q9C0E4; [2]) was “below the threshold”. For the same binder, the pKd (MAGI1_2, Q96QZ7; [2]) was 4.45, the pKd (DFNB31_2, Q9P202; [2]) was 3.71 and the pKd (SCRIB_3, Q14160; [2]) was 5.34. The pKd (GRIP2_7, Q9C0E4; [2]) was 3.75, the pKd (PARD3_3, Q8TEW0; [2]) was 3.71 and the pKd (DLG1_1, Q12959; [2]) was 5.19. The pKd (SIPA1L2, Q9P2F8; [2]) was “below the threshold”, the pKd (NHERF4_2, Q86UT5; [2]) was “below the threshold” and the pKd (GRIP2_5, Q9C0E4; [2]) was “below the threshold”. The pKd (APBA2_2, Q99767; [2]) was “below the threshold”, the pKd (Inadl_10, Q8NI35; [2]) was “below the threshold” and the pKd (LIN7C, Q9NUP9; [2]) was 4.59. For the same binder, the pKd (HTRA2, O43464; [2]) was “below the threshold”, the pKd (MPP2, Q14168; [2]) was “below the threshold” and the pKd (FRMPD1, Q5SYB0; [2]) was “below the threshold”. The pKd (LDB3, O75112; [2]) was “below the threshold”, the pKd (DLG2_3, Q15700; [2]) was 5.36 and the pKd (DVL3, Q92997; [2]) was 3.62. For the same binder, the pKd (GRIP2_6, Q9C0E4; [2]) was “below the threshold” and the pKd (GORASP1, Q9BQQ3; [2]) was “below the threshold”.
